Changes are numbered by the printed parent chain. One block for each binder: values may come before it.
What was measured:
[1] = target: T1, soluble Fas ligand molecule (human Fas ligand released into the supernatant of COS cells transfected with … (human, UniProt P48023 130-281, limits assumed)); test: cell-based or functional assay
T1 sequence (looked up): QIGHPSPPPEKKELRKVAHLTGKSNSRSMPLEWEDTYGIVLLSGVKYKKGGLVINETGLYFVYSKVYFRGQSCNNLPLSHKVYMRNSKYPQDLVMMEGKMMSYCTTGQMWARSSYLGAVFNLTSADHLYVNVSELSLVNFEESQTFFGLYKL

[2] = target: T2, Fas ligand peptide YPQDLVMMEGKMMSY (218-232 positions) (human); test: PepSet pin ELISA, hybridoma culture supernatant, HRP anti-mouse IgG
T2 construct: Synthetic 15-mer immobilized on a PepSet pin
T2 peptide: YPQDLVMMEGKMMSY
Procedure: (§1) (9) After removal of the pins of PepSet from the plate, 50 μl of 2N H_2SO_4 was added to the wells to quench the reaction.
(§2) Thus, it has been shown that the anti-Fas ligand antibody produced by NOK1 and NOK4 hybridomas recognize the region, […]-[…] (SEQ ID NO:139), of Fas ligand, whereas the anti-Fas ligand antibody of NOK2 hybridoma recognizes the region, […]-[…] (SEQ ID NO:140), of Fas ligand.

[3] = target: T3, Fas ligand peptide VMMEGKMMSYCTTGQ (223-237 positions) (human); test: as above
T3 construct: Synthetic 15-mer immobilized on a PepSet pin
T3 peptide: VMMEGKMMSYCTTGQ
Procedure: as §1, §2

[4] = target: T4, Fas ligand peptide KMMSYCTTGQMWARS (228-242 positions) (human); test: as above
T4 construct: Synthetic 15-mer immobilized on a PepSet pin
T4 peptide: KMMSYCTTGQMWARS
Procedure: as §1, §2

B1: RNOK201 (humanized NOK2 antibody, RNOK2VHver11 with RNOK2VLver1) (antibody, V domains shown)
VH: QVQLVQSGAEVKKPGASVKVSCKASGYTFTNYWIGWVKQAPGQGLEWIGYLYPGGLYTNYNEKFKGKATMTADTSTNTAYMELSSLRSEDTAVYYCARYRDYDYAMDYWGQGTLVTVSS
VL: DVVMTQTPSSLSASVGDRASISCKSTKSLLNSDGFTYLGWCQQKPGQSPQLLIYLVSNRFSGVPDRFSGSGSGTDFTLKISSLQPEDIATYYCFQSNYLPLTFGQGTKVEIKR
- apoptosis inhibition: viable rate of Fas-WR19L target cells with soluble Fas ligand, Alamar Blue fluorescence, 17 h [1]: ≥ 90%

B2: RNOK202 (humanized NOK2 antibody, RNOK2VHver11 with RNOK2VLver21) (antibody, V domains shown)
VH: B1 VH
VL: DVVMTQTPLSLPVTPGEPASISCKSTKSLLNSDGFTYLGWCLQKPGQSPQLLIYLVSNRFSGVPDRFSGSGSGTDFTLKISRVEAEDVGVYYCFQSNYLPLTFGQGTKLEIKR
- apoptosis inhibition: viable rate of Fas-WR19L target cells with soluble Fas ligand, Alamar Blue fluorescence, 17 h [1]: ≥ 90%

B3: RNOK203 (humanized NOK2 antibody, RNOK2VHver11 with RNOK2VLver22) (antibody, V domains shown)
VH: B1 VH
VL: B2 VL with P15L, E17Q
- apoptosis inhibition: viable rate of Fas-WR19L target cells with soluble Fas ligand, Alamar Blue fluorescence, 17 h [1]: ≥ 90%

- binding result [2]: binds
- binding result [3]: binds
- binding result [4]: binds
B4: NOK2 antibody (mouse anti-Fas ligand monoclonal antibody of hybridoma NOK2, FERM BP-5045) (antibody, V domains shown)
VH: QVHLQQSGAELVRPGTSVKMSCKAAGYTFTNYWIGWVKQRPGHGLEWIGYLYPGGLYTNYNEKFKGKATLTADTSSSTAYMQLSSLTSEDSAIYYCARYRDYDYAMDYWGQGTSVTVSS
VL: B2 VL with M4L, T14N, P15I, E17D, P18Q, V88L, Q105S
notes: Mouse IgG, purified on protein G; kappa light chain; Those are derived from the cloned PCR product and may hold leader or primer residues; also called mouse NOK2 immunoglobulin; NOK2 immunoglobulin

Source: patent US6777540 (dated 2004)
